According to paper PMC9482650, “Quantitative fragmentomics allow affinity mapping of interactomes” (Nature Communications, 2022):

How the values were obtained:
Test in all cases: holdup assay
Parameters in all cases: key: below the threshold = too weak to quantify, mostly under pKd 3.1 to 4
APBA3_1, O96018 = biological target: T1, APBA3_1, O96018
T1 sequence (O96018 389-490, limits assumed, looked up): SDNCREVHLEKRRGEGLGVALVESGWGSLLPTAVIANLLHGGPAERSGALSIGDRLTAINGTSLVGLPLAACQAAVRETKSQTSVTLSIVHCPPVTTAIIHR

DFNB31_1, Q9P202 = biological target: T2, DFNB31_1, Q9P202
T2 sequence (Q9P202 135-233, limits assumed, looked up): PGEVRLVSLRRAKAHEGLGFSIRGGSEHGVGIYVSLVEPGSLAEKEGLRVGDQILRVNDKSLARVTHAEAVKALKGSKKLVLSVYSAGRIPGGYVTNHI

DFNB31_3, Q9P202 = biological target: T3, DFNB31_3, Q9P202
T3 sequence (Q9P202 811-907, limits assumed, looked up): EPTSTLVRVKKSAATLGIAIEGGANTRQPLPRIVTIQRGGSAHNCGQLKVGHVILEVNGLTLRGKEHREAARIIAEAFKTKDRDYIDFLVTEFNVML

DLG3_2, Q92796 = biological target: T4, DLG3_2, Q92796
T4 sequence (Q92796 221-321, limits assumed, looked up): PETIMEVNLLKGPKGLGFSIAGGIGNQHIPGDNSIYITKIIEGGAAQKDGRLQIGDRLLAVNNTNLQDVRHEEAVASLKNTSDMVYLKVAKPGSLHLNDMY

DLG5_1, Q8TDM6 = biological target: DLG5_1, Q8TDM6
FRMPD3, Q5JV73 = biological target: FRMPD3, Q5JV73
GORASP2, Q9H8Y8 = biological target: GORASP2, Q9H8Y8
GRASP, Q7Z6J2 = biological target: GRASP, Q7Z6J2
GRID2IP_2, A4D2P6 = biological target: GRID2IP_2, A4D2P6
GRIP1_4, Q9Y3R0 = biological target: T5, GRIP1_4, Q9Y3R0
T5 sequence (Q9Y3R0 467-571, limits assumed, looked up): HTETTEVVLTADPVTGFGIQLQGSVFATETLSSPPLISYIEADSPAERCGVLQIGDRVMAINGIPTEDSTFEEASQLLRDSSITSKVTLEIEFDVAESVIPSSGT

GRIP2_4, Q9C0E4 = biological target: GRIP2_4, Q9C0E4
GRIP2_6, Q9C0E4 = biological target: GRIP2_6, Q9C0E4
HTRA3, P83110 = biological target: T6, HTRA3, P83110
T6 sequence (P83110 354-453, limits assumed, looked up): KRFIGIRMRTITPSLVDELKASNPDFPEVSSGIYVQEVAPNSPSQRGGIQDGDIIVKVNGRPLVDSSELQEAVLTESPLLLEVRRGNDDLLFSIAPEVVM

IL16_3, Q14005 = biological target: IL16_3, Q14005
IL16_4, Q14005 = biological target: IL16_4, Q14005
Inadl_9, Q8NI35 = biological target: Inadl_9, Q8NI35
LNX1_2, Q8TBB1 = biological target: LNX1_2, Q8TBB1
MAGI2_2, Q86UL8 = biological target: MAGI2_2, Q86UL8
MPDZ_12, O75970 = biological target: T7, MPDZ_12, O75970
T7 sequence (O75970 1857-1958, limits assumed, looked up): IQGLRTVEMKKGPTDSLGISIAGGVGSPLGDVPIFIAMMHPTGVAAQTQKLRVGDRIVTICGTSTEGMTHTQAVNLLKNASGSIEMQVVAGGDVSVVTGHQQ

MPP2, Q14168 = biological target: T8, MPP2, Q14168
T8 sequence (Q14168 180-250, limits assumed, looked up): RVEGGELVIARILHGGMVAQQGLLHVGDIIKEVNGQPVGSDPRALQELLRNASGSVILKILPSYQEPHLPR

NOS1, P29475 = biological target: NOS1, P29475
PDZRN3_1, Q9UPQ7 = biological target: T9, PDZRN3_1, Q9UPQ7
T9 sequence (Q9UPQ7 244-349, limits assumed, looked up): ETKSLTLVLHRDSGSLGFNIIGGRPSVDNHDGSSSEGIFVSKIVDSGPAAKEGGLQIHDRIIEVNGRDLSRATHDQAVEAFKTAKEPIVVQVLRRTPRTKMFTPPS

PICK1, Q9NRD5 = biological target: PICK1, Q9NRD5
RADIL, Q96JH8 = biological target: T10, RADIL, Q96JH8
T10 sequence (Q96JH8 971-1071, limits assumed, looked up): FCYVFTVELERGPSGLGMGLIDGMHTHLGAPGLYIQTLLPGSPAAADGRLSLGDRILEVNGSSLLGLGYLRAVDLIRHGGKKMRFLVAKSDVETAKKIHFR

TIAM2, Q8IVF5 = biological target: T11, TIAM2, Q8IVF5
T11 sequence (Q8IVF5 885-986, limits assumed, looked up): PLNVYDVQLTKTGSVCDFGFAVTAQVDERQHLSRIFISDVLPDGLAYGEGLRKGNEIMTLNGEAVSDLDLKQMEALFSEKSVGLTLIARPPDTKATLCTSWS

TJP1_3, Q07157 = biological target: TJP1_3, Q07157
[1] = plain residues with an end cap or a label only (N-terminal biotin on a linker: none)
[2] = plain residues with an end cap or a label only (N-terminal biotin on a linker: ahx)

Sequence of Inadl_9, Q8NI35 (Q8NI35 1530-1615): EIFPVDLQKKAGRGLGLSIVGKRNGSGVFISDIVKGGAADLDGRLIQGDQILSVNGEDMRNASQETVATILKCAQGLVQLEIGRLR
Sequence of DLG5_1, Q8TDM6 (Q8TDM6 617-713): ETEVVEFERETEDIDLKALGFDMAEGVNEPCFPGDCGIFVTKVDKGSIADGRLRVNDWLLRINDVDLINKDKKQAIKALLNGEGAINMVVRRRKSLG
Sequence of NOS1, P29475 (P29475 9-101): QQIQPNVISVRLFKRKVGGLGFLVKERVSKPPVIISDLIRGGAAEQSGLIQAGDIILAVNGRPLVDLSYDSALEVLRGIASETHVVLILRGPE
Sequence of IL16_4, Q14005 (Q14005 1229-1329): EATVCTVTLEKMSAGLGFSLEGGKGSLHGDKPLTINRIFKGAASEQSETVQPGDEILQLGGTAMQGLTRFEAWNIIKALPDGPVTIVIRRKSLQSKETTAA
Sequence of GRIP2_6, Q9C0E4 (Q9C0E4 648-740): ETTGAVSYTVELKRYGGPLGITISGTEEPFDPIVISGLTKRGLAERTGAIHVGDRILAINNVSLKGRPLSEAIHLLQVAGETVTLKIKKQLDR
Sequence of FRMPD3, Q5JV73 (Q5JV73 12-100): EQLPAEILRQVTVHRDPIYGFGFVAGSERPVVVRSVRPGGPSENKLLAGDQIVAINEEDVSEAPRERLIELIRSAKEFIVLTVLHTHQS
Sequence of GRASP, Q7Z6J2 (Q7Z6J2 96-193): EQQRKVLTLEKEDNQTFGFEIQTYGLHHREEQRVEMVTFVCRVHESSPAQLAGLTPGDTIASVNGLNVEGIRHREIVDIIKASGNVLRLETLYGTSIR
Sequence of GRIP2_4, Q9C0E4 (Q9C0E4 446-548): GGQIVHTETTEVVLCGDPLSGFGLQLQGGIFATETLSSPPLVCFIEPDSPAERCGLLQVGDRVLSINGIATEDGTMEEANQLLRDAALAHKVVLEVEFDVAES
Sequence of MAGI2_2, Q86UL8 (Q86UL8 410-522): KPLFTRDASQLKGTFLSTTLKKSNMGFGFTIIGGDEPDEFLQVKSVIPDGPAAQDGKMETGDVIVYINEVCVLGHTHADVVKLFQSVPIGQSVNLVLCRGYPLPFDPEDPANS
Sequence of PICK1, Q9NRD5 (Q9NRD5 17-115): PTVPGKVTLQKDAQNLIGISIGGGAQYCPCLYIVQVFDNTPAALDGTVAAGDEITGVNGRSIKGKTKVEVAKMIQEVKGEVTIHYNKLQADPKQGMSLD
Sequence of LNX1_2, Q8TBB1 (Q8TBB1 371-470): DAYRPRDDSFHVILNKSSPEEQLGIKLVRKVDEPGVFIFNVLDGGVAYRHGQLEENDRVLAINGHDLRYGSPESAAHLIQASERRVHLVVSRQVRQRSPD
Sequence of GRID2IP_2, A4D2P6 (A4D2P6 272-370): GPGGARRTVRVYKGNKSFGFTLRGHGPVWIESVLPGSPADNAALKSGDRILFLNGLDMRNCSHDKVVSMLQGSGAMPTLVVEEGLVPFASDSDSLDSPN
Sequence of IL16_3, Q14005 (Q14005 1107-1207): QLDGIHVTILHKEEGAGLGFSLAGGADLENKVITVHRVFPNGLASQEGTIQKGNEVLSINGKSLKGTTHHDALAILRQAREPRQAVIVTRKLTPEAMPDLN
Sequence of TJP1_3, Q07157 (Q07157 416-512): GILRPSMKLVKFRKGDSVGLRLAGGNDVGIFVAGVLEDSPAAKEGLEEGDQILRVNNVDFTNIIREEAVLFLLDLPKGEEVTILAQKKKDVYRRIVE

B1: SARS-CoV2-E, P0DTC4 (peptide)
chain: NLNSSRVPDLLV
pKd (APBA3_1, O96018; [1]): below the threshold | pKd (DFNB31_1, Q9P202; [1]): below the threshold | pKd (DFNB31_3, Q9P202; [1]): below the threshold | pKd (DLG3_2, Q92796; [1]): below the threshold | pKd (DLG5_1, Q8TDM6; [1]): below the threshold | pKd (FRMPD3, Q5JV73; [1]): below the threshold | pKd (GORASP2, Q9H8Y8; [1]): below the threshold | pKd (GRASP, Q7Z6J2; [1]): below the threshold | pKd (GRID2IP_2, A4D2P6; [1]): below the threshold | pKd (GRIP1_4, Q9Y3R0; [1]): below the threshold | pKd (GRIP2_4, Q9C0E4; [1]): below the threshold | pKd (GRIP2_6, Q9C0E4; [1]): below the threshold | pKd (HTRA3, P83110; [1]): 3.63 | pKd (IL16_3, Q14005; [1]): below the threshold | pKd (IL16_4, Q14005; [1]): below the threshold | pKd (Inadl_9, Q8NI35; [1]): below the threshold | pKd (LNX1_2, Q8TBB1; [1]): 3.81 | pKd (MAGI2_2, Q86UL8; [1]): below the threshold | pKd (MPDZ_12, O75970; [1]): below the threshold | pKd (MPP2, Q14168; [1]): below the threshold | pKd (NOS1, P29475; [1]): below the threshold | pKd (PDZRN3_1, Q9UPQ7; [1]): below the threshold | pKd (PICK1, Q9NRD5; [1]): 3.67 | pKd (RADIL, Q96JH8; [1]): 3.76 | pKd (TIAM2, Q8IVF5; [1]): below the threshold | pKd (TJP1_3, Q07157; [1]): below the threshold

B2: PDLIM4, P50479;P50479-2 (peptide)
chain: PSASCAVTAA
pKd (APBA3_1, O96018; [2]): below the threshold | pKd (DFNB31_1, Q9P202; [2]): below the threshold | pKd (DFNB31_3, Q9P202; [2]): below the threshold | pKd (DLG3_2, Q92796; [2]): below the threshold | pKd (DLG5_1, Q8TDM6; [2]): below the threshold | pKd (FRMPD3, Q5JV73; [2]): below the threshold | pKd (GORASP2, Q9H8Y8; [2]): below the threshold | pKd (GRASP, Q7Z6J2; [2]): below the threshold | pKd (GRID2IP_2, A4D2P6; [2]): below the threshold | pKd (GRIP1_4, Q9Y3R0; [2]): below the threshold | pKd (GRIP2_4, Q9C0E4; [2]): below the threshold | pKd (GRIP2_6, Q9C0E4; [2]): below the threshold | pKd (HTRA3, P83110; [2]): below the threshold | pKd (IL16_3, Q14005; [2]): below the threshold | pKd (IL16_4, Q14005; [2]): below the threshold | pKd (Inadl_9, Q8NI35; [2]): below the threshold | pKd (LNX1_2, Q8TBB1; [2]): below the threshold | pKd (MAGI2_2, Q86UL8; [2]): below the threshold | pKd (MPDZ_12, O75970; [2]): below the threshold | pKd (MPP2, Q14168; [2]): below the threshold | pKd (NOS1, P29475; [2]): below the threshold | pKd (PDZRN3_1, Q9UPQ7; [2]): below the threshold | pKd (PICK1, Q9NRD5; [2]): below the threshold | pKd (RADIL, Q96JH8; [2]): below the threshold | pKd (TIAM2, Q8IVF5; [2]): below the threshold | pKd (TJP1_3, Q07157; [2]): below the threshold

B3: GRIN1, Q05586;Q05586-2 (peptide)
chain: LSDPSVSTVV
pKd (APBA3_1, O96018; [2]): below the threshold | pKd (DFNB31_1, Q9P202; [2]): below the threshold | pKd (DFNB31_3, Q9P202; [2]): below the threshold | pKd (DLG3_2, Q92796; [2]): 4.58 | pKd (DLG5_1, Q8TDM6; [2]): below the threshold | pKd (FRMPD3, Q5JV73; [2]): below the threshold | pKd (GORASP2, Q9H8Y8; [2]): below the threshold | pKd (GRASP, Q7Z6J2; [2]): 3.94 | pKd (GRID2IP_2, A4D2P6; [2]): below the threshold | pKd (GRIP1_4, Q9Y3R0; [2]): below the threshold | pKd (GRIP2_4, Q9C0E4; [2]): below the threshold | pKd (GRIP2_6, Q9C0E4; [2]): below the threshold | pKd (HTRA3, P83110; [2]): below the threshold | pKd (IL16_3, Q14005; [2]): below the threshold | pKd (IL16_4, Q14005; [2]): below the threshold | pKd (Inadl_9, Q8NI35; [2]): below the threshold | pKd (LNX1_2, Q8TBB1; [2]): below the threshold | pKd (MAGI2_2, Q86UL8; [2]): below the threshold | pKd (MPDZ_12, O75970; [2]): below the threshold | pKd (MPP2, Q14168; [2]): below the threshold | pKd (NOS1, P29475; [2]): below the threshold | pKd (PDZRN3_1, Q9UPQ7; [2]): below the threshold | pKd (PICK1, Q9NRD5; [2]): below the threshold | pKd (RADIL, Q96JH8; [2]): 3.98 | pKd (TIAM2, Q8IVF5; [2]): below the threshold | pKd (TJP1_3, Q07157; [2]): below the threshold

B4: LNX2, Q8N448 (peptide)
chain: TVICWPGSLV
pKd (APBA3_1, O96018; [2]): below the threshold | pKd (DFNB31_1, Q9P202; [2]): below the threshold | pKd (DFNB31_3, Q9P202; [2]): below the threshold | pKd (DLG3_2, Q92796; [2]): 4.07 | pKd (DLG5_1, Q8TDM6; [2]): below the threshold | pKd (FRMPD3, Q5JV73; [2]): below the threshold | pKd (GORASP2, Q9H8Y8; [2]): 4.55 | pKd (GRASP, Q7Z6J2; [2]): 4.59 | pKd (GRID2IP_2, A4D2P6; [2]): 3.95 | pKd (GRIP1_4, Q9Y3R0; [2]): below the threshold | pKd (GRIP2_4, Q9C0E4; [2]): below the threshold | pKd (GRIP2_6, Q9C0E4; [2]): below the threshold | pKd (HTRA3, P83110; [2]): 3.85 | pKd (IL16_3, Q14005; [2]): below the threshold | pKd (IL16_4, Q14005; [2]): below the threshold | pKd (Inadl_9, Q8NI35; [2]): 3.99 | pKd (LNX1_2, Q8TBB1; [2]): 3.99 | pKd (MAGI2_2, Q86UL8; [2]): 4.26 | pKd (MPDZ_12, O75970; [2]): 3.84 | pKd (MPP2, Q14168; [2]): 3.62 | pKd (NOS1, P29475; [2]): 3.82 | pKd (PDZRN3_1, Q9UPQ7; [2]): 4.17 | pKd (PICK1, Q9NRD5; [2]): 3.75 | pKd (RADIL, Q96JH8; [2]): 4.91 | pKd (TIAM2, Q8IVF5; [2]): below the threshold | pKd (TJP1_3, Q07157; [2]): below the threshold
